In ChEMBL document CHEMBL1275523:

Legend:
Format in all cases: cell-based
[1] = substrate: CC(=O)N[C@H]1[C@H]([C@H](O)[C@H](O)CO)O[C@@](Oc2ccc3c(C)cc(=O)oc3c2)(C(=O)O)C[C@@H]1O; experiment: Activity of human NEU4 expressed in HEK293 cells by fluorometric high-performance liquid chromatography
[2] = substrate: CCCCCCCCCCCCC/C=C/[C@@H](O)[C@H](CO[C@@H]1O[C@H](CO)[C@@H](O[C@@H]2O[C@H](CO)[C@H](O)[C@H](O[C@]3(C(=O)O)C[C@H](O)[C@@H](NC(C)=O)[C@H]([C@H](O)[C@H](O)CO)O3)[C@H]2O)[C@H](O)[C@H]1O)NC(=O)CCCCCCCCCCCCCCCCCCCCCC; experiment: Activity of human NEU3 expressed in HEK293 cells by fluorometric high-performance liquid chromatography
[3] = substrate: CC(=O)N[C@H]1[C@H]([C@H](O)[C@H](O)CO)O[C@@](Oc2ccc3c(C)cc(=O)oc3c2)(C(=O)O)C[C@@H]1O; experiment: Activity of human NEU2 expressed in HEK293 cells by fluorometric high-performance liquid chromatography

B1: Sialidase-4 (Homo sapiens), Q8WWR8 (protein)
chain: MGVPRTPSRTVLFERERTGLTYRVPSLLPVPPGPTLLAFVEQRLSPDDSHAHRLVLRRGTLAGGSVRWGALHVLGTAALAEHRSMNPCPVHDAGTGTVFLFFIAVLGHTPEAVQIATGRNAARLCCVASRDAGLSWGSARDLTEEAIGGAVQDWATFAVGPGHGVQLPSGRLLVPAYTYRVDRRECFGKICRTSPHSFAFYSDDHGRTWRCGGLVPNLRSGECQLAAVDGGQAGSFLYCNARSPLGSRVQALSTDEGTSFLPAERVASLPETAWGCQGSIVGFPAPAPNRPRDDSWSVGPGSPLQPPLLGPGVHEPPEEAAVDPRGGQVPGGPFSRLQPRGDGPRQPGPRPGVSGDVGSWTLALPMPFAAPPQSPTWLLYSHPVGRRARLHMGIRLSQSPLDPRSWTEPWVIYEGPSGYSDLASIGPAPEGGLVFACLYESGARTSYDEISFCTFSLREVLENVPASPKPPNLGDKPRGCCWPS
Km [1]: 20.3 µM

B2: Sialidase-3 (Homo sapiens), Q9UQ49 (protein)
chain: MEEVTTCSFNSPLFRQEDDRGITYRIPALLYIPPTHTFLAFAEKRSTRRDEDALHLVLRRGLRIGQLVQWGPLKPLMEATLPGHRTMNPCPVWEQKSGCVFLFFICVRGHVTERQQIVSGRNAARLCFIYSQDAGCSWSEVRDLTEEVIGSELKHWATFAVGPGHGIQLQSGRLVIPAYTYYIPSWFFCFQLPCKTRPHSLMIYSDDLGVTWHHGRLIRPMVTVECEVAEVTGRAGHPVLYCSARTPNRCRAEALSTDHGEGFQRLALSRQLCEPPHGCQGSVVSFRPLEIPHRCQDSSSKDAPTIQQSSPGSSLRLEEEAGTPSESWLLYSHPTSRKQRVDLGIYLNQTPLEAACWSRPWILHCGPCGYSDLAALEEEGLFGCLFECGTKQECEQIAFRLFTHREILSHLQGDCTSPGRNPSQFKSN
Km [2]: 45.6 µM

B3: Sialidase-2 (Homo sapiens), Q9Y3R4 (protein)
chain: MASLPVLQKESVFQSGAHAYRIPALLYLPGQQSLLAFAEQRASKKDEHAELIVLRRGDYDAPTHQVQWQAQEVVAQARLDGHRSMNPCPLYDAQTGTLFLFFIAIPGQVTEQQQLQTRANVTRLCQVTSTDHGRTWSSPRDLTDAAIGPAYREWSTFAVGPGHCLQLHDRARSLVVPAYAYRKLHPIQRPIPSAFCFLSHDHGRTWARGHFVAQDTLECQVAEVETGEQRVVTLNARSHLRARVQAQSTNDGLDFQESQLVKKLVEPPPQGCQGSVISFPSPRSGPGSPAQWLLYTHPTHSWQRADLGAYLNPRPPAPEAWSEPVLLAKGSCAYSDLQSMGTGPDGSPLFGCLYEANDYEEIVFLMFTLKQAFPAEYLPQ
Km [3]: 1800 µM
